Experiments:
[1] = biological target: HLA-B*18:01; experiment: IEDB peptide-MHC binding, purified MHC/competitive/radioactivity; filed as Kd, often an IC50 or EC50 that approximates it; ≥ and ≤ were set here for values at or beyond the usual limits of such assays
[2] = biological target: HLA-B*40:01; experiment: as above
[3] = biological target: HLA-B*40:02; experiment: as above
[4] = biological target: HLA-B*44:02; experiment: as above
[5] = biological target: HLA-B*44:03; experiment: as above
[6] = biological target: HLA-B*45:01; experiment: as above
[7] = biological target: HLA-A*31:01; experiment: IEDB peptide-MHC binding, purified MHC/direct/fluorescence; filed as Kd, often an IC50 or EC50 that approximates it; ≥ and ≤ were set here for values at or beyond the usual limits of such assays; conditions: source organism: SARS-CoV1
[8] = biological target: HLA-A*33:01; experiment: IEDB peptide-MHC binding, purified MHC/competitive/radioactivity; filed as Kd, often an IC50 or EC50 that approximates it; ≥ and ≤ were set here for values at or beyond the usual limits of such assays; conditions: source organism: SARS coronavirus Tor2
[9] = biological target: HLA-A*68:01; experiment: as above; conditions: source organism: SARS coronavirus Tor2
[10] = biological target: HLA-A*01:01; experiment: as above; conditions: source organism: Mammarenavirus brazilense
[11] = biological target: HLA-A*23:01; experiment: as above; conditions: source organism: Mammarenavirus brazilense
[12] = biological target: HLA-A*24:02; experiment: as above; conditions: source organism: Mammarenavirus brazilense
[13] = biological target: HLA-A*26:01; experiment: as above; conditions: source organism: Mammarenavirus brazilense
[14] = biological target: HLA-A*29:02; experiment: as above; conditions: source organism: Mammarenavirus brazilense
[15] = biological target: HLA-A*30:01; experiment: as above; conditions: source organism: Mammarenavirus brazilense
[16] = biological target: HLA-A*30:02; experiment: as above; conditions: source organism: Mammarenavirus brazilense
[17] = biological target: HLA-A*32:01; experiment: as above; conditions: source organism: Mammarenavirus brazilense
[18] = source organism: SARS coronavirus Tor2
[19] = source organism: Lymphocytic choriomeningitis virus (strain Armstrong)
[20] = source organism: Mammarenavirus choriomeningitidis
[21] = source organism: Mammarenavirus machupoense
[22] = source organism: Mammarenavirus juninense
[23] = source organism: Mammarenavirus brazilense
[24] = source organism: Mammarenavirus lassaense

ADVFHLYLQY
Kd [1, 18]: ≥ 20700 nM
Kd [2, 18]: 16500 nM
Kd [3, 18]: ≥ 39800 nM
Kd [4, 18]: 2420 nM
Kd [5, 18]: 147 nM
Kd [6, 18]: 11400 nM

AEILPDTTY
Kd [1, 19]: 1410 nM
Kd [2, 19]: 6010 nM
Kd [3, 19]: 14000 nM
Kd [4, 19]: 97.8 nM
Kd [5, 19]: 100 nM
Kd [6, 19]: 1230 nM

AEIVDTVSA
Kd [1, 18]: 8190 nM
Kd [2, 18]: 396 nM
Kd [3, 18]: 73.5 nM
Kd [4, 18]: 1930 nM
Kd [5, 18]: 1640 nM
Kd [6, 18]: 8.59 nM

AELLPDTTYL
Kd [1, 20]: ≥ 70400 nM
Kd [2, 20]: 9780 nM
Kd [3, 20]: 167 nM
Kd [4, 20]: 561 nM
Kd [5, 20]: 1210 nM
Kd [6, 20]: 17300 nM

AENVIVGLV
Kd [1, 21]: ≥ 77500 nM
Kd [2, 21]: 2930 nM
Kd [3, 21]: 30 nM
Kd [4, 21]: 142 nM
Kd [5, 21]: 340 nM
Kd [6, 21]: 3.39 nM

AETGSQGVY
Kd [1, 22]: 6630 nM
Kd [2, 22]: 15900 nM
Kd [3, 22]: 638 nM
Kd [4, 22]: 271 nM
Kd [5, 22]: 228 nM
Kd [6, 22]: 211 nM

AEVEWKFYDA
Kd [1, 18]: 1540 nM
Kd [2, 18]: 8440 nM
Kd [3, 18]: 4690 nM
Kd [4, 18]: 79 nM
Kd [5, 18]: 90.5 nM
Kd [6, 18]: 5.54 nM

AVDPAKAYK
Kd [7]: 293 nM
Kd [8]: 3420 nM
Kd [9]: 553 nM

CEKALKYLPI
Kd [1, 18]: ≥ 29100 nM
Kd [2, 18]: 6970 nM
Kd [3, 18]: 30.3 nM
Kd [4, 18]: 127 nM
Kd [5, 18]: 1150 nM
Kd [6, 18]: 104 nM

CEMNHVNSM
Kd [1, 23]: 467 nM
Kd [2, 23]: 2970 nM
Kd [3, 23]: 67 nM
Kd [4, 23]: 178 nM
Kd [5, 23]: 963 nM
Kd [6, 23]: 214 nM

DEADLDEILL
Kd [1, 24]: 1700 nM
Kd [2, 24]: 18100 nM
Kd [3, 24]: 5930 nM
Kd [4, 24]: ≥ 45600 nM
Kd [5, 24]: ≥ 26900 nM
Kd [6, 24]: ≥ 45000 nM

FDAAVMGGF
Kd [1, 24]: ≥ 39800 nM
Kd [2, 24]: ≥ 32300 nM
Kd [3, 24]: 5230 nM
Kd [4, 24]: ≥ 27400 nM
Kd [5, 24]: 18400 nM
Kd [6, 24]: ≥ 77700 nM

FEHIVYGDF
Kd [1, 18]: 1260 nM
Kd [2, 18]: 7140 nM
Kd [3, 18]: 782 nM
Kd [4, 18]: 1870 nM
Kd [5, 18]: 13100 nM
Kd [6, 18]: ≥ 22300 nM

FEIDKGIYQT
Kd [1, 18]: 6400 nM
Kd [2, 18]: 738 nM
Kd [3, 18]: 47.3 nM
Kd [4, 18]: ≥ 56500 nM
Kd [5, 18]: 11800 nM
Kd [6, 18]: 3100 nM

GDEALTGFL
Kd [1, 21]: 5820 nM
Kd [2, 21]: 908 nM
Kd [3, 21]: 2990 nM
Kd [4, 21]: 13800 nM
Kd [5, 21]: ≥ 78100 nM
Kd [6, 21]: ≥ 22600 nM

GENAVIPKG
Kd [1, 18]: ≥ 77500 nM
Kd [2, 18]: ≥ 76200 nM
Kd [3, 18]: 907 nM
Kd [4, 18]: 2030 nM
Kd [5, 18]: 2230 nM
Kd [6, 18]: 828 nM

GERSRCYSLY
Kd [10]: ≥ 26700 nM
Kd [11]: ≥ 70000 nM
Kd [12]: ≥ 70300 nM
Kd [13]: ≥ 69700 nM
Kd [14]: 14400 nM
Kd [15]: 5430 nM
Kd [16]: 718 nM
Kd [17]: ≥ 69900 nM

— the Immune Epitope Database (IEDB)
